{"source": "patent US20100197896A1", "about": "(published 2010)", "molecular_target": "T1, human CD20 antigen (human, UniProt P11836 1-297)", "T1 construct": "whole, on cells; also called MS4A1", "T1 sequence (looked up)": "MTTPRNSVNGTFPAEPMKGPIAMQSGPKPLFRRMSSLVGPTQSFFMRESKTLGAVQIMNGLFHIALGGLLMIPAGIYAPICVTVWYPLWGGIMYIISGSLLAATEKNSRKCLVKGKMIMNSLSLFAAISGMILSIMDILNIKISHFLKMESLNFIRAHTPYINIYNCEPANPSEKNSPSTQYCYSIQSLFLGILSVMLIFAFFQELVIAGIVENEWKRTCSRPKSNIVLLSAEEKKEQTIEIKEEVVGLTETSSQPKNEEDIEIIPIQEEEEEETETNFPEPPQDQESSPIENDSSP", "experiment": "competition flow cytometry against FITC-conjugated fr1F5 (FIG. 6)", "data": [{"binder": "framework-re-engineered 1F5 antibody (antibody, V domains shown, also called fr1F5) VH: QVQLVASGAEVNKPGASVKVSCKASGYTFTSYNMHWVRQPPGRGLEWIGAIYPGNGDTSYNQKFKGRVTITADKSTSTAYMELSSLRSEDTAVYYCARSHYGSNYVDYFDYWGQGTTVTVSS VL: DIQLTQSPSSLSASVGDRVTITCRASSSLSFMHWYQQKPGQAPVPVIYATSNLASGVPSRFSGSGSGTEFTLTISSLQPEDFATYFCHQWSSNPLTFGAGTKLTVLR", "values": [{"measurement": "binding result", "result": "binds"}]}, {"binder": "murine 1F5 antibody (antibody, V domains shown, Mouse IgG with a kappa light chain, from hybridoma ATCC HB-9645; also called anti-CD20 mAb 1F5) VH: QVQLRQPGAELVKPGASVKMSCKASGYTFTSYNMHWVKQTPGQGLEWIGAIYPGNGDTSYNQKFKGKATLTADKSSSTAYMQLSSLTSEDSAVYYCARSHYGSNYVDYFDYWGQGTTLTVSS VL: QIVLSQSPAILSASPGEKVTMTCRASSSLSFMHWYQQKPGSSPKPWIYATSNLASGVPARFSGSGSGTSYSLTISRVEAEDAATYFCHQWSSNPLTFGAGTKLELKR", "values": [{"measurement": "binding result", "result": "binds"}]}]}
